Reference: publication PMC10320583 (Journal of Structural Biology: X, 2023)

Tests used:
[1] = target: E. coli LptAm-GSGGSGSG-AviTag, biotinylated (E. coli) (UniProt P0ADV1)
[2] = target: the molecule itself; assay: crystal structure
[3] = target: T1, E. coli LptAm-GSGGSGSG-AviTag, biotinylated (E. coli, UniProt P0ADV1 28-158, biotin on the AviTag (BirA biotin-protein ligase)); assay: BLI
T1 sequence (looked up): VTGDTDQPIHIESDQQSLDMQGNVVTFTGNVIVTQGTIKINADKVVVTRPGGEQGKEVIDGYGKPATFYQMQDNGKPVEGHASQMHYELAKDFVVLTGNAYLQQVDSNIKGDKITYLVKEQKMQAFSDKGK

## Chinavia ubica thanatin (peptide)
[1]
  MIC against E. coli ATCC 25922: 1.4 µg/mL

## Murgantia histrionica thanatin (peptide)
[1]
  MIC against E. coli ATCC 25922: 1.1 µg/mL

B1: E. coli LptAm (truncated monomeric LptA) (domain or fragment, UniProt P0ADV1 28-158, looked up)
chain: T1 sequence (looked up)
[2]
  stoichiometry N: 2

## GSKKPVPIIYCNRRTGKCQRI (peptide, UniProt P55788 1-21, looked up) [P. maculiventris thanatin M21I]
[3]
  fold improvement of binding over P. maculiventris thanatin: ~3 fold

## GSKKPVPIIACNRRTGKCQRI (peptide, UniProt P55788 1-21, looked up) [P. maculiventris thanatin Y10A/M21I]
[3]
  fold improvement of binding over P. maculiventris thanatin: ~3 fold

## GSKKPVPIIACNRRTGKCQRM (peptide, UniProt P55788 1-21, looked up) [P. maculiventris thanatin Y10A]
[3]
  fold improvement of binding over P. maculiventris thanatin: ~3 fold

## GSKKPVPIIYCNRRTGKCRRM (peptide, UniProt P55788 1-21, looked up) [P. maculiventris thanatin Q19R]
[3]
  fold improvement of binding over P. maculiventris thanatin: ~3 fold
